Laboratory results from PMC8900818, “The suppressor of copper sensitivity protein C from Caulobacter crescentus is a trimeric disulfide isomerase that binds copper(I) with subpicomolar affinity” (Acta Crystallographica. Section D, Structural Biology, 2022).

Assays:
[1] = biological target: Caulobacter crescentus suppressor of copper sensitivity protein C, C2S variant (Caulobacter crescentus); experiment: mass photometry; reduced proteins diluted to ~150 nM and added in 2 µl steps to 10 µl buffer (25 mM HEPES pH 7.5, 150 mM NaCl); Refeyn One; mass of the main peak against the monomer's mass
[2] = biological target: Caulobacter crescentus suppressor of copper sensitivity protein C, C2S variant (Caulobacter crescentus); experiment: crystal structure; reduced CcScsC C2S at 130 mg/ml, 37-39% MPD, 0.02 M CaCl2, 0.2 M sodium acetate pH 7.25, 4°C; space group P63, one protomer per asymmetric unit, trimer by crystallographic symmetry
[3] = biological target: Caulobacter crescentus suppressor of copper sensitivity protein C, wild type (Caulobacter crescentus); experiment: mass photometry; reduced proteins diluted to ~150 nM and added in 2 µl steps to 10 µl buffer (25 mM HEPES pH 7.5, 150 mM NaCl); Refeyn One; mass of the main peak against the monomer's mass
[4] = biological target: Caulobacter crescentus suppressor of copper sensitivity protein C, wild type (Caulobacter crescentus); experiment: SEC-SAXS; inline SEC-SAXS (S200 5/150 GL) with sheath flow, 283 K, injection 5.6 mg/ml; molecular mass from the Porod volume
[5] = biological target: Proteus mirabilis ScsC (Proteus mirabilis); experiment: mass photometry; reduced proteins diluted to ~150 nM and added in 2 µl steps to 10 µl buffer (25 mM HEPES pH 7.5, 150 mM NaCl); Refeyn One; mass of the main peak against the monomer's mass
[6] = biological target: the molecule itself; experiment: as above

Caulobacter crescentus suppressor of copper sensitivity protein C, C2S variant (enzyme)
stoichiometry N [1]: 3 | stoichiometry N [2]: 3

Caulobacter crescentus suppressor of copper sensitivity protein C, wild type (enzyme)
stoichiometry N [3]: 3 | stoichiometry N [4]: 3

Proteus mirabilis ScsC (enzyme)
stoichiometry N [5]: 3

B1: Escherichia coli DsbC (enzyme, UniProt P0AEG6 21-236, looked up)
chain: DDAAIQQTLAKMGIKSSDIQPAPVAGMKTVLTNSGVLYITDDGKHIIQGPMYDVSGTAPVNVTNKMLLKQLNALEKEMIVYKAPQEKHVITVFTDITCGYCHKLHEQMADYNALGITVRYLAFPRQGLDSDAEKEMKAIWCAKDKNKAFDDVMAGKSVAPASCDVDIADHYALGVQLGVSGTPAVVLSNGTLVPGYQPPKEMKEFLDEHQKMTSGK
notes: E. coli DsbC, UniProt P0AEG6; monomer printed as 24.1 kDa; Control protein of the mass photometry; Probably the mature protein without signal peptide; also called EcDsbC
stoichiometry N [6]: 2
